Data taken from publication PMC6302015.

Key:
[1] = target: Dopamine receptor D2 (D2R) peptide (N430-R443); assay: ITC; MicroCal VP-ITC; 50 μM D2R peptide in the cell titrated with NCS-1; 25°C; 20 mM Tris-HCl pH 8.0, 150 mM NaCl, 5 mM CaCl2 and 100 μM ZnCl2; one set of sites model
[2] = target: Dopamine receptor D2 (D2R) peptide (N430-R443); assay: ITC; MicroCal VP-ITC; 50 μM D2R peptide in the cell titrated with NCS-1 (1 mM stock, thirty 10 μl injections); 25°C; 20 mM Tris-HCl pH 8.0, 150 mM NaCl, 5 mM CaCl2; one set of sites model
[3] = target: GST-tagged N-terminal fragment of GRK1 (M1-G183) (UniProt P28327); assay: pull-down; 50 μg GST-N-GRK1 immobilised on Glutathione Sepharose; 25 μM NCS-1 applied; 20 mM Tris pH 8.0, 150 mM NaCl, 1 mM DTT, 1 mM CaCl2 and 0-100 μM ZnCl2; 1 h at 4°C; bound NCS-1 detected by western blotting
Chain of UniProt P28327 (P28327 1-183): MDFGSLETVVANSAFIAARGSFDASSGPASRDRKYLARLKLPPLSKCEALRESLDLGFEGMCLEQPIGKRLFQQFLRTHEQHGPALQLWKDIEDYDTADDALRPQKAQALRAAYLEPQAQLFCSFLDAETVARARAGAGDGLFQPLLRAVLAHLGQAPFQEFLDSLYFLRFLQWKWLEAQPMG

Neuronal calcium sensor-1 (recombinant myristoylated NCS-1) (from UniProt P62166 1-190) (natural protein)
Ka [1]: 118000 M⁻¹
Kd [1]: 8.47 µM
dH [1]: -3.2 kcal/M
stoichiometry N [1]: 0.508
Ka [2]: 33200 M⁻¹
Kd [2]: 30.1 µM
dH [2]: -3 kcal/M
stoichiometry N [2]: 0.676
fold change of binding with 25 μM Zn^2+ against no Zn^2+ [3]: 2 fold
